Laboratory results as given in patent US20250135039A1, “INHIBITOR-RESISTANT MGMT MODIFICATIONS AND MODIFICATION OF MGMT-ENCODING NUCLEIC ACIDS” (Ensoma, Inc., priority 2022, published 2025).
Positions count from the first letter of the chain named. In names and notes the source's numbering stands.

B1: N137P: MGMT polypeptide with mutation N137P (protein)
chain: MDKDCEMKRTTLDSPLGKLELSGCEQGLHEIKLLGKGTSAADAVEVPAPAAVLGGPEPLMQCTAWLNAYFHQPEAIEEFPVPALHHPVFQQESFTRQVLWKLLKVVKFGEVISYQQLAALAGNPKAARAVGGAMRGPPVPILIPCHRVVCSSGAVGNYSGGLAVKEWLLAHEGHRLGKPGLGGSSGLAGAWLKGAGATSGSPPAGRN
B2: P138K: MGMT polypeptide with mutation P138K (protein)
chain: B1 chain with P137N, P138K
B3: P140F: MGMT polypeptide with mutation P140F (protein)
chain: B1 chain with P137N, P140F
B4: P140H: MGMT polypeptide with mutation P140H (protein)
chain: B1 chain with P137N, P140H
B5: P140I: MGMT polypeptide with mutation P140I (protein)
chain: B1 chain with P137N, P140I
B6: P140Q: MGMT polypeptide with mutation P140Q (protein)
chain: B1 chain with P137N, P140Q

Tested on: U251 human glioblastoma cell line
Assay: in vitro FM-HCR assay of MGMT activity (mPlum O^6MeG reporter plasmid)
Format: cell-based
Settings: 100 μM O^6BG; U251 cells; flow cytometry 24 h after transfection; damaged/undamaged reporter; inversely related to MGMT activity
Description: The present Example includes, in part, an in vitro fluorescence multiplex host cell reactivation (FM-HCR) assay in which a reporter plasmid with O^6MeG-containing oligonucleotides is used. The oligonucleotides induce transcription errors that lead to expression of fluorescent mPlum protein. Functional MGMT will repair the O^6MeG sites and reduce mPlum expression. This represents a rapid and validated assay system to assess intracellular activity of MGMT. Further description of certain such assays is found in Nagel (2014 PNAS USA 111 (18): E1823-32, which is incorporated herein by reference.
The present Example uses an in vitro FM-HCR assay in which a reporter plasmid with 0° MeG-containing oligonucleotides is used to assay MGMT activity in cells. The O^6MeG-containing oligonucleotides induce transcription errors that lead to expression of fluorescent mPlum protein. Functional MGMT will repair the O'MeG sites and reduce mPlum expression. This represents a rapid and validated assay system to assess intracellular activity of MGMT. Further description of certain such assays is found in Nagel et al., 2014 PNAS USA 111 (18): E1823-32 and Piett et al., 2021 Nat. Protoc. 16 (9): 4265-4298, each of which is incorporated herein by reference.
The in vitro FM-HCR assay was performed using the U251 human glioblastoma cell line. The cells were cultured in DMEM with 10% FBS and passaged every three days.
To express MGMT variants in the cells, plasmids encoding each MGMT variant were designed and generated by either de novo synthesis or cloning into the pTwist EF1 Alpha Puro vector at the HindII-BamHI multiple cloning site. The pTwist EF1 Alpha Puro plasmid vector drives expression of the MGMT transcript from a human EF1-alpha promoter including intron 1 and an SV40 polyadenylation signal. Plasmids encoding the MGMT variants were purified using standard molecular biology techniques from E. coli with low endotoxins. Plasmids encoding wild-type MGMT or O^6BG-resistant MGMT^P140K were also designed and generated for use as controls.
To perform the in vitro FM-HCR assay, U251 cells were seeded in 12-well plates at a density of 50,000 cells per well in 1 mL culture media. The following day, the media was changed to 1 mL of culture media containing O^6BG (100 μM O^6BG and 0.1% DMSO final) or 0.1% DMSO; and the cells were transfected with 1,000 ng of a plasmid cocktail using Lipofectamine 3000 (ThermoFisher Scientific) at 1.8 μL Lipofectamine 3000 Reagent and 2 μL P3000 reagent in Opti-MEM medium (ThermoFisher Scientific). […] For the “undamaged” condition, the plasmid cocktail replaced the mPlum O^6MeG reporter plasmid with 100 ng of a plasmid expressing mPlum. The plasmid encoding BFP was used as an internal transfection control. For transfections where no MGMT encoding plasmid is used (no pMGMT), 250 ng of additional carrier plasmid was used to maintain a total DNA amount of 1,000 ng in each transfection. Four hours after transfection, the transfection medium was changed.
All transfected cells were analyzed by flow cytometry at 24-hours after transfection. Data was analyzed as previously described in Nagel et al., 2014 PNAS USA 111 (18): E1823-32 and Piett et al., 2021 Nat. Protoc. 16 (9): 4265-4298. For each condition, normalized reporter expression was determined by taking the product of the mPlum-positive cell count and the mean mPlum fluorescence intensity in mPlum-positive cells and dividing it by the product of the BFP-positive cell count and the mean BFP fluorescence intensity in BFP-positive cells. Next, for each MGMT variant, the percent reporter expression was determined by taking the normalized reporter expression in the “damaged” condition and dividing it by the normalized reporter expression in the “undamaged” condition, and then multiplying by 100 to obtain a percent value. […]

Row | Molecule | Reporter expression (%) mean, O^6BG
1 | B1 | 93.0%
2 | B2 | 64.0%
3 | B3 | 76.8%
4 | B4 | 29.3%
5 | B5 | 31.0%
6 | B6 | 49.0%

Same assay, conditions: 0.1% DMSO; U251 cells; flow cytometry 24 h after transfection; damaged/undamaged reporter; inversely related to MGMT activity

Row | Molecule | Reporter expression (%) mean, DMSO
7 | B1 | 94.0%
8 | B2 | 16.3%
9 | B3 | 25.3%
10 | B4 | 15.7%
11 | B5 | 14.7%
12 | B6 | 15.3%

Same assay, conditions: DMSO condition; determined from percent reporter expression

Row | Molecule | MGMT activity (a.u.) DMSO
13 | B1 | 1.06 a.u.
14 | B2 | 6.12 a.u.
15 | B3 | 3.96 a.u.
16 | B4 | 6.38 a.u.
17 | B5 | 6.82 a.u.
18 | B6 | 6.52 a.u.

Same assay, conditions: DMSO condition; relative to wild-type MGMT in same condition

Row | Molecule | MGMT activity (% of WT) DMSO
19 | B1 | 19.7 % of WT
20 | B2 | 113.3 % of WT
21 | B3 | 73.3 % of WT
22 | B4 | 118.1 % of WT
23 | B5 | 126.1 % of WT
24 | B6 | 120.7 % of WT

Same assay, conditions: MGMT activity (a.u.) in O^6BG divided by DMSO x 100; higher values indicate resistance

Row | Molecule | Relative MGMT activity (%)
25 | B1 | 101.1%
26 | B2 | 25.5%
27 | B3 | 32.9%
28 | B4 | 53.4%
29 | B5 | 47.3%
30 | B6 | 31.3%

Same assay, conditions: O^6BG condition; determined from percent reporter expression

Row | Molecule | MGMT activity (a.u.) O^6BG
31 | B1 | 1.08 a.u.
32 | B2 | 1.56 a.u.
33 | B3 | 1.30 a.u.
34 | B4 | 3.41 a.u.
35 | B5 | 3.23 a.u.
36 | B6 | 2.04 a.u.

Same assay, conditions: O^6BG condition; relative to wild-type MGMT in same condition

Row | Molecule | MGMT activity (% of WT) O^6BG
37 | B1 | 75.3 % of WT
38 | B2 | 109.4 % of WT
39 | B3 | 91.2 % of WT
40 | B4 | 238.6 % of WT
41 | B5 | 225.8 % of WT
42 | B6 | 142.9 % of WT

Same assay, conditions: lower values indicate resistance to O^6BG

Row | Molecule | Ratio percent reporter expression (O^6BG/DMSO)
43 | B1 | 0.99
44 | B2 | 3.92
45 | B3 | 3.04
46 | B4 | 1.87
47 | B5 | 2.11
48 | B6 | 3.20

Same assay, conditions: percentage difference in relative MGMT activity between variant and wild-type MGMT

Row | Molecule | O^6BG resistance relative to WT (%)
49 | B1 | 282.4%
50 | B2 | −3.4%
51 | B3 | 24.5%
52 | B4 | 102.1%
53 | B5 | 79.0%
54 | B6 | 18.4%
